Publication PMC9437053

Molecular target: ribosomal protein S1 (Escherichia coli, UniProt P0AG67 1-557)
Experiment: EMSA; natural S1; preferred over SBS-Up; EMSA: 1 uM biotin-RNA, 1x EMSA/Gel-shift binding buffer (Beyotime), 20 C, 30 min; native PAGE in ice-cold 0.5x TBE, 170 V; salt and pH not stated

Does UCGGCUCGUAUAAUGUGUGGAACGCUUUUACUGUUUUAAGGAGAUAUACC (ssRNA) [SBS-Down-RNA] bind?
Result: binds
